Experiments:
[1] = tested on: O=C(O)CCCNC(=O)c1cc2cc(F)c(O)c(F)c2oc1=O; experiment: purified protein, by the assay type; settings: other: ligation to LAP, 2 μM ligase, 600 μM LAP; pH 7.2
[2] = target: biotinylated LAP-mCherry fusion protein; experiment: gel shift on SDS-PAGE of HEK cell lysate incubated with 5 µM streptavidin, in-gel mCherry fluorescence

Row | percent of LAP-mCherry shifted up to ~80 kD [2] [%] | Substance | Km [1] [µM] | kcat [1] [s⁻¹]
1 |  | E20G/W37TLplA (Escherichia coli K-12; E21G/W38T) | 17.5 ± 4.3 | 0.014 ± 0.001
2 | 21 | streptavidin protein (from UniProt P22629 37-163) |  | 

Source: patent US20150125904A1, “PROBE INCORPORATION MEDIATED BY ENZYMES” (Massachusetts Institute of Technology, priority 2012, published 2015)
